Measured values from paper PMC13134614, “In vitro liquid-liquid phase separation induced by respiratory syncytial virus proteins and RNA” (Science Advances, 2025).

Columns and labels:
M2-1 [1] = target: T1, M2-1 (Respiratory syncytial virus, UniProt P04545 1-194); assay: EMSA (native agarose gel, Amido black protein stain); 10 uM protein, 15 uM RNA; clear band shift; EMSA: 20 mM Tris pH 8, 150 mM NaCl, 30 min room temperature, 1% native agarose in 1X Tris-glycine; PhaseScan: 20 mM Tris-HCl pH 7.4, 150 mM NaCl, no crowding agent; details: protein: recombinant; tags: GST fusion vector pGEX-M2-1; chain copies: 4; single strand
T1 sequence: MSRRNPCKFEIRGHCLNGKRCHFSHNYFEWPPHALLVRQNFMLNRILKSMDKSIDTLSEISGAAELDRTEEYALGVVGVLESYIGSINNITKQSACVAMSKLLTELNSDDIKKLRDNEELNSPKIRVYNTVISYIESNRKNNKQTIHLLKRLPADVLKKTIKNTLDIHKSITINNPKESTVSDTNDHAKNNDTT

M2-1 [2] = target: T1, M2-1; assay: EMSA (native agarose gel, Amido black protein stain); 10 uM protein, 15 uM RNA; no band shift (none or too weak to detect); EMSA: 20 mM Tris pH 8, 150 mM NaCl, 30 min room temperature, 1% native agarose in 1X Tris-glycine; PhaseScan: 20 mM Tris-HCl pH 7.4, 150 mM NaCl, no crowding agent; details: protein: recombinant; tags: GST fusion vector pGEX-M2-1; chain copies: 4; single strand
[3] = target: T2, RSV nucleoprotein N fused to mCherry (N-mCherry), N rings (respiratory syncytial virus (RSV), UniProt P03418 1-391); assay: microfluidic diffusional sizing (MDS); 0.5 μM N-mCherry with increasing concentrations of unlabeled P or P domains, incubated 30 min in the dark; 150 mM NaCl, 20 mM tris pH 7.4; hydrodynamic radius of N in triplicate, Fluidity One-M; details: both partners purified
T2 construct: Nucleoprotein N of respiratory syncytial virus, 391 residues; from the plasmid pET-mCherry-N; The results call the sample of the MDS experiment 'N rings' (N-RNA oligomers holding bacterial RNA); The plasmid is named pET-mCherry-N, the methods of MDS say 'N-mCherry', so the end of mCherry is open; source: E. coli BL21 (DE3), purified (gel filtration)
T2 sequence (looked up): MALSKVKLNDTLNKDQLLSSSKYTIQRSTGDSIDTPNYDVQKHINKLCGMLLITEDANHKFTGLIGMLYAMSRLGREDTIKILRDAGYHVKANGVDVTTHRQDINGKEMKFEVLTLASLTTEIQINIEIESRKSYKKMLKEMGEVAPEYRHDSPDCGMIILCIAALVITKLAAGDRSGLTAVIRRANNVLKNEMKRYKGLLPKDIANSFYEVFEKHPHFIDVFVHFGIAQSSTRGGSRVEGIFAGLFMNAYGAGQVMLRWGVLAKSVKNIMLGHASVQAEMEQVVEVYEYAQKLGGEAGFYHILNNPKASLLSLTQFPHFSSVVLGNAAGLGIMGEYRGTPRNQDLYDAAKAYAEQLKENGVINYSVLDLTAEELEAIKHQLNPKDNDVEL

B1: 5' cap 7-mer RNA (ssRNA)
RNA: AGCGUAC
modifications: 5' cap (7mGppp, 2'-O-methyl on first nucleotide as generally described); cap G not counted in strand
B1: binds (M2-1 [1]).

AGCGUAC (ssRNA, 5' OH) [5' OH 7-mer RNA]: no binding (M2-1 [2]).

B2: RSV phosphoprotein P residues 127-241 (domain or fragment, respiratory syncytial virus (RSV), UniProt P03421 127-241, looked up)
chain: TNDNITARLDRIDEKLSEILGMLHTLVVASAGPTSARDGIRDAMIGLREEMIEKIRTEALMTNDRLEAMARLRNEESEKMAKDTSDEVSLNPTSEKLNNLLEGNDSDNDLSLEDF
notes: Holds the tetramerization domain POD (131 to 151); source: E. coli BL21 (DE3), purified (gel filtration)
Binder B2 has a Kd [3] of 2600 ± 900 nM.
